Source: paper PMC8789855, “Ion currents through Kir potassium channels are gated by anionic lipids” (Nature Communications, 2022)
Positions count from the first letter of the chain named. Numbers in names are those of the source.

What was measured:
KirBac3.1-SCS [1] = molecular target: T1, KirBac3.1-SCS (Paramagnetospirillum magnetotacticum, UniProt D9N164, C71S/C262S); experiment: ACMA liposome K+ flux assay; single-channel recording; PEGylation gel shift; type: biochemical; settings: covalent, at Cys119 near fenestration; activator; pH 8.5 (flux assay)
T1 construct: prokaryotic Kir channel, native Cys119 kept as only cysteine, expressed in E. coli C41(DE3), Co2+ IMAC, homotetramer, reconstituted in liposomes or bilayers; PDB 6O9U is the native parent, 7N9L/7N9K are SCS and SCS-L124M
T1 sequence (D9N164 1-295 C71S/C262S): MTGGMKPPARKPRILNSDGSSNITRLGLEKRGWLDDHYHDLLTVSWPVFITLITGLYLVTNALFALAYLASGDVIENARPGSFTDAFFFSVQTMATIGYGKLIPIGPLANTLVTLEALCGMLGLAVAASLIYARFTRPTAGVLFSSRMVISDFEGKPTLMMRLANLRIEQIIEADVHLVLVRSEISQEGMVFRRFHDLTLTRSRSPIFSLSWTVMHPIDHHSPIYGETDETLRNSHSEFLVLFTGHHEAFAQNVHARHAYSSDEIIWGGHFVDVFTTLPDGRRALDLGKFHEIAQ

KirBac3.1-SCS [2] = molecular target: T1, KirBac3.1-SCS; experiment: single-channel recording in planar lipid bilayer; type: biochemical; settings: covalent, at Cys119 near fenestration; pH 7.4, 23 C, -80 mV
[3] = molecular target: the molecule itself; experiment: native MS; 200 mM ammonium acetate pH 8.0, 0.5% C8E4 (2x CMC); modified Q-Exactive
[4] = molecular target: the molecule itself; experiment: SEC; Superdex 200 10/30 in 20 mM TRIS pH 8.0, 150 mM KCl, 0.02% (w/v) DDM; fractions of the tetramer collected
[5] = molecular target: the molecule itself; experiment: crystal structure; sitting drops, vapour diffusion, 4 mg/ml protein; PEG 4,000, PEG 8000, PEG 400, 90 mM HEPES pH 7.5, 1 mM TCEP and 50 mM EDTA or 10 mM CaCl2

CCCCCCCCCCSS(C)(=O)=O [decyl-MTS]
ACMA liposome K+ flux assay; single-channel recording; PEGylation gel shift (KirBac3.1-SCS [1]): bound decyl chains (C119-decyl) increased activity relative to wild type

CCCCCCCCSS(C)(=O)=O [octyl MTS-reagent (C119-octyl)]
single-channel recording in planar lipid bilayer (KirBac3.1-SCS [2]): channels derivatised with one of three MTS-reagents to titrate the effect of chain length

B1: KirBac3.1 (wild type prokaryotic Kir channel) (natural protein)
chain: T1 sequence (D9N164 1-295 C71S/C262S) with S71C, S262C
notes: KirBac3.1, prokaryotic inward rectifier K+ channel; Co-purifies with phospholipids (PG, PE); also called native KirBac3.1; wild type KirBac3.1; source: E. coli C41(DE3), purified (Co2+ IMAC, Superdex 200 SEC, in DDM)
stoichiometry N [3]: 4

B2: KirBac3.1-SCS derivatised with decyl-MTS at Cys119 (natural protein)
chain: T1 sequence (D9N164 1-295 C71S/C262S)
modifications: decyl chain from decyl-methylthiosulfonate on Cys119
notes: KirBac3.1 on the otherwise cysteine-less SCS background (C71S-C262S), native Cys119 kept and derivatised; also called C119-decyl; source: E. coli C41(DE3), purified, reacted with decyl-MTS, re-purified by SEC
binding result [4]: binds

B3: KirBac3.1-SCS (C71S-C262S background) (natural protein)
chain: T1 sequence (D9N164 1-295 C71S/C262S)
notes: KirBac3.1 with two native cysteines mutated to serine; Mutant cDNA bought from Genscript; source: E. coli C41(DE3), purified (Co2+ IMAC, Superdex 200 SEC, in DDM)
binding result [5]: binds

B4: KirBac3.1 L124M (on the C71S-C262S background) (natural protein)
chain: T1 sequence (D9N164 1-295 C71S/C262S) with L124M
notes: KirBac3.1 with L124M on the SCS (C71S-C262S) background; Mutant cDNA bought from Genscript; also called Leu124M; source: E. coli C41(DE3), purified (Co2+ IMAC, Superdex 200 SEC, in DDM)
binding result [5]: binds

B5: KirBac3.1-SCS derivatised with hexyl-MTS at Cys119 (natural protein)
chain: T1 sequence (D9N164 1-295 C71S/C262S)
modifications: hexyl chain from hexyl-methylthiosulfonate on Cys119
notes: KirBac3.1 on the otherwise cysteine-less SCS background (C71S-C262S), native Cys119 kept and derivatised; also called C119-hexyl; source: E. coli C41(DE3), purified, reacted with hexyl-MTS, re-purified by SEC
binding result [4]: binds
